{"source": "patent US10202584B2", "about": "“Red-shifted luciferase-luciferin pairs for enhanced bioluminescence” (The Regents of the University of California, priority 2016, dated 2019)", "test_system": "HEK 293T cells", "assay": "Bioluminescence relative to FLuc with P2A bicistronic vectors in HEK 293T cells", "format": "cell-based, Human", "conditions": "10,000 HEK 293T cells, 30 μM substrates, first 2 min integrated", "text": "FIG. 12 is a panel examining the impact of luciferase protein levels on bioluminescence intensities. (12a) Western blot analysis of HEK 293T cells expressing luciferases with C-terminal c-Myc tags. The relative proteins levels quantified from individual bands are shown in parentheses. These enzymes were expressed at different levels but the differences were within 3-fold. […] Under this condition, two luciferases in the same vectors are expected to be expressed near-stoichiometrically."}
{"molecule": "NanoLuc: luciferase engineered from a 19 kDa domain of Oplophorus luciferase (SEQ ID NO: 1) (protein, Engineered mutant of Oplophorus gracilirostris polypeptide) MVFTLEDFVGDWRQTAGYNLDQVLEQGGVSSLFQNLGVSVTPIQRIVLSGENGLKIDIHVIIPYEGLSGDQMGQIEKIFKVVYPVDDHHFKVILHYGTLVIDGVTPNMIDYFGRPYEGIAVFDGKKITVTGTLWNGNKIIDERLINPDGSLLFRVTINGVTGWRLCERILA", "values": [{"measurement": "bioluminescence relative to FLuc, P2A bicistronic vectors", "value": "Large bioluminescence enhancements"}]}
